{
  "source": "patent US20110021746A1",
  "about": "(published 2011)",
  "biological_target": "T1, TNF-α (UniProt P01375 77-233, biotinylated)",
  "T1 construct": "also called TNF-alpha; biotintylated TNF-α soluble protein (R&D Systems)",
  "T1 sequence (P01375 77-233 limits assumed)": "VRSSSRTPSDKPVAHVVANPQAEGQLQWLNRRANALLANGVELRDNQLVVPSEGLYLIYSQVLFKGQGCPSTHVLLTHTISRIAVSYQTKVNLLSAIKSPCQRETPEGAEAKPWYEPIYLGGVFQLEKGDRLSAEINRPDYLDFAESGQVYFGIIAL",
  "assay": "Octet BLI, biotinylated TNF-α on streptavidin tips",
  "method": "The target protein was biotintylated TNF-α soluble protein (R&D Systems) and is at a concentration of 0.25 ug/ml for loading onto the streptavidin sensor tips. […] The Octet was run using the manufacturers protocol for Basic Kinetic Assay.",
  "data": [
    {"binder": "TNF-α binder R41A6 (designed binder, 14FN3 variant; for the Octet expressed from pET-20b with pelB signal and C-terminal hexahistidine tag; also called TNF A6) NVSPPRRARVTDATETTITISWEHSEDDCYSYIYYFQVDAVPANGQTPIQRTISGYETYYTITGLQPGTDYKIYLYTLNSAGFCPPYSKPVVIDAST", "values": [
      {"measurement": "Kd", "value": "20 to 100", "unit": "nM"}
    ]}
  ]
}
